Usually solubility stands for the dissolved amount per volume that the medium holds.

No end group written: not given here.

A short description of the series: Solubility of VS fragments in water. The series is classed as physicochemical. As for the experimental part:
Accordingly, the VS48 is apt to be dissolved in a solvent directly without any assistance of solubilizers (such as a tag protein, TRX) and with no sediments being produced. The solvent can be any solutions comprising similar osmotic pressure to body's liquid of organisms (such as plasma), for example 0.85-0.9% saline. Preferably, the solvent is 0.85-0.90% saline, which is dramatically stable as store and is capable of being stored for one year under 4° C.

In turn, “GPDICGPGTKKVHVIFNYKGKNVLINKDIRCKDDEFTHLYTLIVRPDN (cysteines drawn unpaired) [VS48]” displayed a solubility of 1000 µg/mL.

These data come from patent US20130296242A1, “MEDICATION AND THERAPY TREATING OF CHOROIDAL NEOVASCULARIZATION” (NATIONAL SUN YAT-SEN UNIVERSITY, priority 2012, published 2013).
